Test results as given in patent US20160340442A1 (Dana-Farber, published 2016).

T1: cell surface MUC1-C protein (human, UniProt P15941 1098-1255)
T1 construct: MUC1-C subunit as carried by MUC1-positive cell lines and patient cells (or in their lysates for Western blot); also called MUC1 C-ter; MUC1 on MUC1-positive cells
T1 sequence: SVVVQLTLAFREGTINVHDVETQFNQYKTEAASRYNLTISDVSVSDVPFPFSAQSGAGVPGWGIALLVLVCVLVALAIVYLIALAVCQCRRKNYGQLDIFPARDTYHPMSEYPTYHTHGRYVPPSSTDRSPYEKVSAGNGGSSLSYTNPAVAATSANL

T2: MUC1-C/ECD protein (human, UniProt P15941 1098-1155)
T2 construct: also called MUC1-C/ECD antigen; the antigen
T2 sequence: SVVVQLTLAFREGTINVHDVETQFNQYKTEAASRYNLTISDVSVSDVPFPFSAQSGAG

T3: P2 (human)
T3 construct: Synthetic overlapping peptide of MUC1-C/ECD; also called peptide P2
T3 peptide: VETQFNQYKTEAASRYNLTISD

T4: P1 (human)
T4 construct: Synthetic overlapping peptide of MUC1-C/ECD; also called peptide P1
T4 peptide: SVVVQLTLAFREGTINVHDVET

T5: P3 (human)
T5 construct: Synthetic overlapping peptide of MUC1-C/ECD; also called peptide P3
T5 peptide: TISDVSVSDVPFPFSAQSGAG

T6: MUC1-CQC→AQA mutant (human, UniProt P15941 1098-1255)
T6 construct: also called HCT116/MUC1-CQC→AQA mutant cells
T6 chain: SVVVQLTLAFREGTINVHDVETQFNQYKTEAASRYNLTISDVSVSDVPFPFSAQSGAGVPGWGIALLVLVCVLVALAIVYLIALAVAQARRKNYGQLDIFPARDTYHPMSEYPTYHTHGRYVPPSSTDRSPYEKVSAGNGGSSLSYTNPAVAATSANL

T7: MUC1-C/ECD-hFc (human, UniProt P15941 1098-1155)
T7 construct: The screening text says the antigen was MUC1-C/ECD-mFc or MUC1-C/ECD-hFc; the hFc form is used here because hFc alone was the negative control; also called hFc-MUC1-C/ECD; MUC1-ECD-hFc; not shown: human Fc (hFc)
T7 sequence: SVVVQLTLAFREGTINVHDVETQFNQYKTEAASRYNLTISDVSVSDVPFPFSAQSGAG

T8: bacterially-produced MUC1-C/ECD protein (human, UniProt P15941 1098-1155)
T8 construct: Produced in bacteria; also called MUC1 proteins made in bacteria; p58-mFc
T8 sequence: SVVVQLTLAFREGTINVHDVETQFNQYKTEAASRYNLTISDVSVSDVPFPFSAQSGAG


What was measured:
[1] = biological target: T1, cell surface MUC1-C protein; assay: flow cytometry, ZR-75-1, MCF-7 and HCT-116/MUC1 cells
Excerpt: FIG. 35. […] Reactivity was detected by immunofluorescence FACScan.
FIG. 36. […] Reactivity was detected by immunofluorescence FACScan.

MUC1-C/ECD protein [2] = biological target: T2, MUC1-C/ECD protein; assay: ELISA, plates coated with the antigen, multiple antibody concentrations
Experimental: FIG. 38. ELISA assays were performed by coating plates with the antigen and reactivity with multiple different concentrations of purified antibodies 7B8, 4G5 and 2B11.

P2 = biological target: T3, P2; assay: ELISA, peptide as competitor (indirect: peptide did not inhibit binding to the antigen)
P1 = biological target: T4, P1; assay: as above
P3 = biological target: T5, P3; assay: as above
[3] = biological target: T1, cell surface MUC1-C protein; assay: surface staining, flow cytometry, ZR-75-1 cells (third row); 2 µg antibody/sample
[4] = biological target: T1, cell surface MUC1-C protein; assay: surface staining, flow cytometry, KU812 CML cells; 2 µg antibody/sample
[5] = biological target: T1, cell surface MUC1-C protein; assay: surface staining, flow cytometry, K562 CTL-siRNA cells; 2 µg antibody/sample; fixed samples kept at 4° C. for 4 days
[6] = biological target: T1, cell surface MUC1-C protein; assay: surface staining, flow cytometry, K562 CML cells; 2 µg antibody/sample
[7] = biological target: T1, cell surface MUC1-C protein; assay: surface staining, flow cytometry, K562 MUC1-siRNA cells (MUC1 silenced); 2 µg antibody/sample
[8] = biological target: T1, cell surface MUC1-C protein; assay: cell-based or functional assay
MUC1-CQC→AQA mutant = biological target: T6, MUC1-CQC→AQA mutant; assay: flow cytometry, HCT116/MUC1-CQC→AQA mutant cells
Experimental: FIG. 37. HCT116/MUC1-wild-type and HCT116/MUC1-CQC→AQA mutant cells 7B8 for 30 min, washed, incubated with goat anti-mouse immunoglobulin-flourescein-conjugated antibody (Santa Cruz Biotechnology), and fixed in 1% formaldehyde/PBS. Reactivity was detected by immunofluorescence FACScan.

[9] = biological target: T1, cell surface MUC1-C protein; assay: flow cytometry, ZR-75-1 cells, competitive format with purified MUC1-C/ECD protein; 7B8 binding not abrogated
Experimental: Characterized of 7B8 and 3D1 antibodies. Linear epitope mapping of 7B8 and 3D1 clones was performed using three overlapping peptides spanning the entire MUC1-C/ECD region (58 amino acids) were synthesized. ELISA assays were performed using 7B8 or 3D1 purified antibodies in the presence or absence of P1, P2 or P3 peptides. […] Conformational epitope mapping of 7B8 and 3D1 was performed using eight critical individual point mutants in the MUC1-C/ECD region by ELISA. […] These findings indicate that D19 is a part of the conformational core/pocket for 3D1 binding. ZR-75-1 breast carcinoma cells were used determine 7B8 or 3D1 antibody binding in a competitive format with MUC1-C/ECD and analyzed by FLOW. […] These findings indicate that the conformational binding epitopes of 7B8 and 3D1 are different. The sequencing results for hybridoma 3D1 is shown in FIG. 50 and is discussed in greater detail below.

MUC1-C/ECD protein [10] = biological target: T2, MUC1-C/ECD protein; assay: ELISA, plates coated with the MUC1-C/ECD antigen
MUC1-C/ECD-hFc = biological target: T7, MUC1-C/ECD-hFc; assay: hybridoma screen, indirect ELISA or Western blot; antigen MUC1-C/ECD-mFc or MUC1-C/ECD-hFc
Experimental: ELISA. ELISA was performed by coating the plates with 100 μl of 1 μg/ml MUC1-C/ECD-hFc or MUC1-C/ECD-mFc or hFc (as negative control). Hybridoma supernatants or immune sera were screened against the coated proteins by incubating with the plate for 1 hr. The bound antibody was detected by incubating with specific secondary antibody (anti-mouse Ig, F(ab)₂ specific) conjugated to HRP (horse radish peroxidase). Further, the reaction was developed with HRP-specific substrate for 30 min and the plate was read at 405 nm.
Fusion for Hybridoma and Primary Screening. Based on the results obtained from the ELISA, spleen from both mice was used for fusion with myeloma cells to generate hybridoma. Spleen-myeloma fusion was performed by mixing mouse myeloma cells sp2/0-Ag14 and splenocytes in 1:3 ratio in the presence of polyethylene glycol (PEG). Post fusion cell culture was carried out in selective HAT medium. Hybridomas selected by indirect ELISA or Western blot using recombinant MUC-C/ECD-mFc or MUC1-C/ECD-hFc as the antigen and were subjected to subcloning by limiting dilution protocol until the clones become stable. The fusion clones obtained from the spleen of mouse 1 is termed as 315.1 clones and similarly the one from mouse 2 is called 315.2 clones. The fusion clones obtained from the spleen of mouse 1 from other immunization batch is termed as 384 clones. […]

[11] = biological target: T8, bacterially-produced MUC1-C/ECD protein; assay: Western blot

Row | Binder | binding result (P2) | binding result (P1) | binding result (P3) | flow cytometry value (unit not given) [3] | flow cytometry value (unit not given) [4] | flow cytometry value (unit not given) [5] | flow cytometry value (unit not given) [6] | flow cytometry value (unit not given) [7] | further results
1 | 400.6.4G5.E11.G2 (antibody, IgG1, V domains shown) VH: QITLKESGPGILQPSQTLSLTCSFSGFSLSTSGMGVSWIRQPSGKGLEWLSHIYWDDDKRYNPSLKSRLSISKDTSRNQVFLKITSVDTADTATYYCAPGVSSWFPYWGPGTLVTVSA VL: SIVMTQTPKFLPVSAGDRVTVTCKASQSVGNYVAWYQQKPGQSPKLLIYFASNRYSGVPDRFTGSGSGTDFTFTISSVQVEDLAVYFCQQHYIFPYTFGSGTKLEIK | no binding | no binding | no binding |  |  |  |  |  | binding result [1]: binds; binding result (MUC1-C/ECD protein [2]): binds
2 | 400.6.2B11.D5.F6 (antibody, IgG1, V domains shown) VH: QVQLQQSGAELMKPGASVKISCKAIGFTFNYFWIEWVKQRPGHGLEWIGEILPGTGSTNYNEKFKGKAIFTADTSSNTAYMQLRSLTSEDSAVYYCVRYDYTSSMDYWGQGTSVTVSS VL: NIVMTQSPKSMSMSVGERVTLTCKASENVGTYVSWYQQKPEQSPKLLIYGASNRYTGVPNRFTGSGSATDFTLTISSVQAEDLADYYCGQSYSYPWTFGGGTKLEIK | no binding | no binding | no binding |  |  |  |  |  | binding result [1]: binds; binding result (MUC1-C/ECD protein [2]): binds
3 | 315.1.6A6.C11.G5 (antibody, V domains shown, also called MAb 6A6; Clone 6A6) VH: QVQLKESGPGLVAPSQSLSMTCTVSGFSLTTYGVHWVRQPPGKGLEWLVVIWSDGSTTYNSPLKSRLSISRDNSKSQVFLKMNSLQADDTAIYYCAKNYLGSLDYWGQGTSVTVSS VL: DVVLTQTPLSLPVSLGDQASISCRSSQSLVHNNGDTYLHWYLQKPGQSPKLLIYKVSNRFSGVPDRFSGSGSGTDFTFKISRVEAEDLGVYFCSQTTHVPLTFGAGTKLELK |  |  |  | 2.16 | 31.6 | 22.6 | 9.31 | 6.26 | 
4 | 315.2.8F1.D2.D1 (antibody, V domains shown, also called Clone 8F1; P58-8F1) VH: EVQLVESGGGLVQPGESLKLSCESNEYEFPSHDMSWVRKTPEKRLELVAAINSDGGSTYYPDTMERRFIISRDNTKKTLYLQMSSLRSEDTALYYCVRLYYGNVMDYWGQGTSVTVSS VL: DVVMTQTPLSLPVSLGDQASISCRSSQSLVHSNGNTYLYWYLQKPGQSPKLLIYKVSNRFSGVPDRFSGSGSGTDFTLKISRVEAEDLGVYFCSQSTHVPLTFGAGTKLELK |  |  |  | 1.57 | 39.9 | 34.4 | 9.58 | 6.37 | 
5 | 315.2.8E1.F7.C3.H7.H8.F5 (antibody, V domains shown, also called MAb 8E1; Clone 8E1) VH: EVQLVESGGGLVQPGESLKLSCESNEYEFPSHDMSWVRKTPEKRLELVAAINSDGGSTYYPDTMERRFIISRDNTKKTLYLQMSSLRSEDTALYYCVRLYYGNVMDYWGQGTSVTVSS VL: DVVMTQTPLSLPVSLGDQASISCRSSQSLVHSNGNTYLYWYLQKPGQSPKLLIYKVSNRFSGVPDRFSGSGSGTDFTLKISRVEAEDLGVYFCSQSTHVPLTFGAGTKLELK |  |  |  | 1.61 | 39.6 | 22.4 | 8.65 | 6.91 | 
6 | 7B8-MMAF (other, monomethyl auristatin F (MMAF) via cleavable linker valine-citrulline-p-aminobenzyl (Val-Cit-PAB); attachment residues not stated) VH: QVQLQQPGAELVKPGASEKLSCKASGHTFTSYWMHWVKQRPGQGLEWIGEINPSNGRTYYNENFKTKATLTVDKYSSSASMQLRSLTSEDSAVYYCASDGDYVSGFAYWGQGTTLTVSS VL: DIVLTQSPGSLAVSLGQSVTISCRASESVQYSGTSLMHWYQQKPGQPPKLLIYGASNVETGVPARFSGSGSGTDFSLNIHPVEEDDIAMYFCQQNWKVPWTFGGGTKLEIK |  |  |  |  |  |  |  |  | dose-dependent inhibition of proliferation in ZR-75-1 breast carcinoma cells, IC50 [8]: ~0.86 nM
7 | 400.6.7B8.G3.G1 (antibody, IgG2a, V domains shown) VH: QVQLQQPGAELVKPGASEKLSCKASGHTFTSYWMHWVKQRPGQGLEWIGEINPSNGRTYYNENFKTKATLTVDKYSSSASMQLRSLTSEDSAVYYCASDGDYVSGFAYWGQGTTLTVSS VL: DIVLTQSPGSLAVSLGQSVTISCRASESVQYSGTSLMHWYQQKPGQPPKLLIYGASNVETGVPARFSGSGSGTDFSLNIHPVEEDDIAMYFCQQNWKVPWTFGGGTKLEIK | no binding | no binding | no binding |  |  |  |  |  | binding result (MUC1-CQC→AQA mutant): binds; binding result [9]: binds; binding result (MUC1-C/ECD protein [10]): binds
8 | 384.1.2H11.F2.G6 (antibody, V domains shown, The printed entries run a few residues into the constant regions; also called 384.2H11.F2.G6) VH: QIQLVQSGPELKKPGETVKTSCKASGYTFTGYSMHWVKQAPGKGLKWMGWINTETGEPTYADDFKGRFALSLETSASTTYLQINNLKNEDTATYFCVRGTGGDDWGQGTTLTVSS VL: DVVMTQTPLSLPVSLGDQASISCRSSQSLVHSNGNTYLHWYLQKPGQSPKLLIYKVSNRFSGVPDRFSGSGSGTDFTLKINRVEAEDLGVYFCSQGTHVPPTFGGGTKLEIKR |  |  |  |  |  |  |  |  | binding result (MUC1-C/ECD-hFc): binds; binding result [11]: binds
